System: MS2 coat protein
Assay: apparent KD of MS2 coat protein; higher = weaker reporter binding
Conditions: Eterna round: R107
Summary of the method: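 Designed RNA switches were transcribed on-chip from Illumina sequencing clusters and titrated with SNAP-549-labelled MS2 coat protein in twofold steps from 0.7 or 1.5 nM up to 3 µM. Each step lasted 0.8–1.5 h at first and 10–20 min by the end, in 100 mM Tris-HCl pH 7.5, 80 mM KCl and 4 mM MgCl2, without or with constant ligand. Apparent KD is the median, for each design, of fits to normalised cluster binding curves.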

[1] = input ligand: theophylline 20 uM
[2] = input ligand: tryptophan 2.4 mM
[3] = input ligand: theophylline 2 mM

Sequence	apparent KD of MS2 coat protein (input ligand: arginine 13.2 mM) [nM]	apparent KD of MS2 coat protein [1] [nM]	apparent KD of MS2 coat protein [2] [nM]	apparent KD of MS2 coat protein [3] [nM]	apparent KD of MS2 coat protein (input ligand: none) [nM]
AUGUCGUUGAAUAUAGCGGCUUGGAGUGAUACCAGUAUGAUCCAAUACCCUUGGCAGCAUAACAUGAGGAUCACCCAUGUUCCAG [SSTheo A #25]	19.5	43.7	18.6	–	–
AUGUCGUUGAAUAUAGCGGCUUGGUGUGAUACCAGAAUGAUCAAAUUCCCUUGGCAGCAUUACAUGAGGAUCACCCAUGUUUAGG [SSTheo A #18]	18.6	30.2	29.3	–	–
AUGUCGUUGAAUAUAGCGGCUUGGUGUGAUACCAGAAUGAUCUAAUUCCCUUGGCAGCAUUACAUGAGGAUCACCCAUGUUCAGG [SSTheo A #20]	22	28	26.3	–	–
AUGUUUGUGUGAGAUACCAGUGAGGCCACAUGAGGAUCACCCAUGUCCCUCACUCCGGCCCACCCUUGGCAGCUCUUAUAGAAAA [Exclusion Theophylline B GF 26]	8.81	15.4	9.79	–	–
AUUAACAUGAGGAUCACCCAUGUUUGUCUCCGAGGACCGGUACGGCCGCCACUCGCAGGUUGGAGUCGCUAUAUGGGCGUUCACU [theeternabot_sameState_MS2_Trp_A_42]	31.7	53.5	–	64.9	–
AUUAAGAAUAUGUAGACGGCGGAGAAGAGACGAGGACCGGUACGGCCGCCACUCGUGUUAGUUAACAUGAGGAUCACCCAUGUUA [#08 Tryptophan A Same State]	11.9	14.1	11.8	12.6	12.1
AUUAAUAGUUGUGAUACCAGACUUACAUGAGGAUCACCCAUGUUACUUAAGUGUUUUGAUGUCCCUUGGCAGCACUGUUUAGUUA [JR_SSTheophyB_Sub016]	24.3	33	25	–	–
AUUAUAGUUUAUAACGAAGUUGAUACAGAAGGAGCGGGAGUAAUCUCAGGUAGGUCGCUGAUAAUACAUGAGGAUCACCCAUGUG [#15 Same State - Arginine A]	17.1	19.4	18.9	24.7	19
AUUCAUGGAAACAUGACAUACAUAACCGGUCGAGGACCGGUACGGCCGCCACUCGGUUGGUGGCACAUGAGGAUCACCCAUGUUA [SS Tryp A #10]	21.7	39.3	–	28.5	–
AUUCAUGGAAACAUGACAUAGGGAUCUAUCCGAGGACCGGUACGGCCGCCACUCGCGUGGAGGCACAUGAGGAUCACCCAUGUUA [SS Tryp A #5]	71.2	384	–	843	–
AUUCUUUACUGAAGGAGCGUCAUUCUUACAUGAGGAUCACCCAUGUUUAUUCUUUAUUAUUGACAGGUAGGUCGCAGAUUUUUUA [JR_SSArginiB_Sub018]	15.5	17.7	14.3	14.3	13.8
AUUUACAUGGUCAUAUAUAUAUCGUCAGAUACCAGACUAGAUAUAGUCCCUUGGCAGCUGUUACAUGAGGAUCACCCAUGUUAUA [JR_Nu_ExcTheophyA_Sub019]	41.8	95.8	109	–	–
AUUUAUUAGACGGCCGCCACUUGAAAGAGACCUCAUAAAUGGGAACAUGAGGAUCACCCAUGUAAGAGGACCGGGUCUAGUAGAU [TryptB-ms2@45]	55.2	497	610	1320	567
AUUUGUACUUAGUGUUGAGUUCUGUCGGAAGGAGCGGAAUAUAAUCCAGGUAGGUCGCCGACAGACAUGAGGAUCACCCAUGUAA [#09 Exclusion - Arginine A]	28.2	38.9	32.3	34.7	38.3
CAAAAUUUAACGGCCGCCACUUACUCAUGAGGUAACAACAUGAGGAUCACCCAUGUUUGAGGAUCAAGGACCGGGUUAAAUUUUG [AstrosSSTry#20]	26.6	33.9	–	30.7	–
CAAGAACAGCCGAAUCUCGGCAGCUGAGAAGGAGCGCGAGAAGUCGCAGGUAGGUCGCUCAGGAAUACAUGAGGAUCACCCAUGU [Usaronen]	32.4	45.9	27.9	46.8	28.4
CAAUGCAGGUCGGCCGCCACUACACACAUGAGGAUCACCCAUGUAGUUACUGGGUGAAGUGGCAGUAGGACCGGGACCUGCAUAC [Brourdmod03]	246	423	807	772	290
CACAGUGCGAAAUUGAAACCGCACGAUCCUCGAGGACCGGUACGGCCGCCACUCGCGCGGGUCGUACAUGAGGAUCACCCAUGUC [Zaarmaqu]	71.8	351	–	869	–
CACAUGAGGAUCACCCAUGUCUGAACUGAAGGAGCGCUAAACAAGGCAGGUAGGUCGCGGAAUCGUGUGUGCAUAUGCACACGCG [9.V]	13.6	17.9	16.5	31.3	22

Sequence	apparent KD of MS2 coat protein (input ligand: arginine 13.2 mM) [nM]	apparent KD of MS2 coat protein [1] [nM]	apparent KD of MS2 coat protein [2] [nM]	apparent KD of MS2 coat protein [3] [nM]	apparent KD of MS2 coat protein (input ligand: none) [nM]
CACAUUUUUAGAAGGGCGGUUUCACUCCUGCGAGGACCGGUACGGCCGCCACUCGACAUGAGGAUCACCCAUGUGGAGAAGUUAG [Laesedti]	18.4	27.9	–	30.5	–
CACGAAAGAUCGGCCGCCACUAAUCUAUGUGUUCUUUCACAUGAGGAUCACCCAUGUUCUUGCGUUAGGACCGGGAUUGAGCGUG [#02 Exclusion Tryptophan B]	29.9	39.7	–	36.6	–
CACGAAAGAUCGGCCGCCACUAUUUGAUGUGUUCUUUCACAUGAGGAUCACCCAUGUUCUUAUUAUAGGACCGGGAUUGAGCGUG [ETB #3]	73.9	141	–	190	–
CACGAAAGAUCGGCCGCCACUCAUGUAGCUUACAUGAGGAUCACCCAUGUAUUUUCUUUCUUUUAGAGGACCGGGAUCGAGCGUG [#02 Same State - Tryptophan B]	33.6	65.2	–	43.5	–
CACGAAAGAUCGGCCGCCACUCAUGUUUCUUACAUGAGGAUCACCCAUGUAUUUUCUUUCUUUUAGAGGACCGGGAUUGAGCGUG [SSTB #1]	117	197	–	199	–
CACGAUUUGUCGGCCGCCACUAAGGUAACUCUUCUCACAUGAGGAUCACCCAUGUGCCCGAAGCUUAGGACCGGGAUAAUGGGUG [Dieson]	32.3	150	–	288	–
CACGGACGAGUGGAUCACCCUCGUAAUAACCGAGGACCGGUACGGCCGCCACUCGAAAACCGUGACCUGUACGAAAAGUGCAGGA	56.1	210	73.2	531	88.7
CACGGAUGAGUGGAUCACCCUCGUAAUAACCGAGGACCGGUACGGCCGCCACUCGAAAACCGUGACCUGUACGAAAAGUGCAGGA	56.7	399	39.8	1500	36.5
CAGCCUGGUUGGUAAAUCCCUCAUCGUGAUACCAGUCGAGUGAUCGACCCUUGGCAGCACAUGAGGAUCACCCAUGUGCUCGUAU [Diorqu]	18.6	31.1	17.9	–	–
CAGGUGCAGUCAGAUACCAGAUCUGCACAUGAGGAUCACCCAUGUGUAAUGAGUUCAAAGAUCCCUUGGCAGCUGUGUGAUCCGA [Onbidibe]	81.1	210	96.3	–	–
CAGUCAGUCAGUCAAUGAGUGAGCCAUGAAGGAGCGUGGGAAACCACAGGUAGGUCGCAUGGGAAACAUGAGGAUCACCCAUGUU [SSArg A #2]	27.5	36.9	28.2	36.2	25.5
CAUACUUUAGUAUGUUAUGUGGACAGUGAUACCAGAUACGAAAGUAUCCCUUGGCAGCACAACAUGAGGAUCACCCAUGUAAUUU [Theophylline A 5]	24.4	24.8	28.2	–	–
CAUCGUCGGUCGGCCGCCACUACUGGACAUGAGGAUCACCCAUGUGGCCCGCUGUAUUAACCGCGUAGGACCGGGACGGGAGGUA [theeternabot_exclusion_MS2_Trp_B_4]	24	48.6	–	39.3	–
CAUGAAGUAACUGAUACCAGUGUACUGACAUGAGGAUCACCCAUGUUGGGUUUUGUUGUACACCCUUGGCAGCAGAAUCUUUAUG [AstrosExyTheB#4]	50	70.8	58.5	–	–
CCAAGCAUAAUAGAUACCAGUCGUAUACCUCCAACAUGAGGAUCACCCAUGUGCUCAGUUGACCCUUGGCAGCUAUGCCUAUAGA [theeternabot_sameState_MS2_Theo_B_1]	37.4	53.3	38.2	–	–
CCACAUGAGGAUCACCCAUGUAUAGUUGAAGGAGCGAUCAUUAGGUCAGGUAGGUCGCAGCACAUGAGGAUCACCCAUGUCGAAA [DOUBLE!!! :-D #3]	41.2	60.9	58.4	72.8	64.8
CCACUUUCUUUUAUCUUUCUUUCUUUGUUACGAGGACCGGUACGGCCGCCACUCGUGGUGUGUGGUACAUGAGGAUCACCCAUGU	23.1	34.9	–	32.9	–
CCAUAAGUAACUGAUACCAGUGUACUGACAUGAGGAUCACCCAUGUUGGGUUUUGUUGUACACCCUUGGCAGCAGAAUCUUGUGG [AstrosExyTheB#16]	43.9	70.1	54.3	–	–
CCCAAAUAGAUCAAAGGAAUUAUACUCGAAGGAGCGUCAUAGUAGGCAGGUAGGUCGCGAGACAUGAGGAUCACCCAUGUAGAGA [sssmullin]	33.3	45.6	34.9	57.2	51.9

Reference: the supplement of paper PMC9170038
